In the supplement of paper PMC7877785:
± gives the uncertainty stated by the source.

Test: self-splicing fitness, log relative to wild type (ln ratio); higher = more splicing; Tetrahymena group I intron in knt gene, E. coli kanamycin selection, DiMSum; sequences stand for … in CUCUCU…GGAGGGAAAAGUUAUCAGGCAUGCACCUGGUAGCUAGUCUUUAAACCAAUAGAUUGCAUCGGUUUAAAAGGCAAGACCGUCAAAUUGCGGGAAAGGGGUCAACAGCCGUUCAGUACCAAGUCUCAGGGGAAACUUUGAGAUGGCCUUGCAAAGGGUAUGGUAAUAAGCUGACGGACAUGGUCCUAACCACGCAGCCAAGUCCUAAGUCAACAGAUCUUCUGUUGAUAUGGAUGCAGUUCACAGACUAAAUGUCGGUCGGGGAAGAUGUAUUCUUCUCAUAAGAUAUAGUCGGACCUCUCCUUAAUGGGAGCUAGCGGAUGAAGUGAUGCAACACUGGAGCCGCUGGGAACUAAUUUGUAUGCGAAAGUAUAUUGAUUAGUUUUGGAGUACUCGUGGUCG
Outline: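 The eight P1ex-region nucleotides of an intron in the knt kanamycin-resistance gene on pET-22b(+) were all randomised and the library put into E. coli BL21(DE3). Six replicate transformations were grown overnight at 37°C or 30°C on LB agar with or without 25 μg/mL kanamycin, together with 100 μg/mL carbenicillin, 50 μM IPTG and 0.2% rhamnose. Colonies were pooled and amplicon-sequenced on an Illumina HiSeq 2500. Fitness from DiMSum is the error-weighted combination of wild-type-normalised replicate fold changes, kanamycin over none.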

Sequence	self-splicing fitness (ln) (30 °C)	self-splicing fitness (ln) (37 °C)
GCGAAGCAAUAUUACGCGAC	-1.88 ± 0.17	-1.1 ± 0.19
GCGAAGCAAUAUUACGCGAG	-2.08 ± 0.22	-3.24 ± 0.3
GCGAAGCAAUAUUACGCGAU	-2.49 ± 0.44	-1.74 ± 0.47
GCGAAGCAAUAUUACGCGCG	-2.34 ± 0.17	-1.28 ± 0.22
GCGAAGCAAUAUUACGCGCU	-1.85 ± 0.24	-1.48 ± 0.4
GCGAAGCAAUAUUACGCGGC	-3.23 ± 0.22	-2.35 ± 0.25
GCGAAGCAAUAUUACGGGAA	-3.48 ± 0.43	-2.68 ± 0.33
GCGAAGCAAUAUUACGGGCG	-1.84 ± 0.11	-0.509 ± 0.13
GCGAAGCAAUAUUACGGGCU	-2.68 ± 0.19	-1.88 ± 0.17
GCGAAGCAAUAUUACGGGGC	-3.1 ± 0.24	-1.82 ± 0.23
GCGAAGCAAUAUUACGUAAG	-2.04 ± 0.11	-1.41 ± 0.13
GCGAAGCAAUAUUACGUAGG	-1.32 ± 0.092	-1.43 ± 0.13
GCGAAGCAAUAUUACGUCUA	-1.16 ± 0.1	-1.3 ± 0.093
GCGAAGCAAUAUUACGUGAU	-2.53 ± 0.092	-0.973 ± 0.098
GCGAAGCAAUAUUACGUGCG	-2.31 ± 0.16	-1.5 ± 0.18
GCGAAGCAAUAUUACGUGGG	-3.87 ± 0.24	-2.67 ± 0.26
GCGAAGCAAUAUUACGUGUU	-2.52 ± 0.11	-2.07 ± 0.11
GCGCAGCAAUAUUACGAAAC	-0.473 ± 0.16	-0.354 ± 0.19
GCGCAGCAAUAUUACGACCG	-1.37 ± 0.18	-0.215 ± 0.21
GCGCAGCAAUAUUACGAUUU	-1.07 ± 0.094	0.585 ± 0.11
GCGCAGCAAUAUUACGCAGU	-2.63 ± 0.31	-1.04 ± 0.29
GCGCAGCAAUAUUACGCAUG	-3.37 ± 0.28	-3.3 ± 0.33
GCGCAGCAAUAUUACGCGUG	-1.93 ± 0.11	-1.36 ± 0.13
GCGCAGCAAUAUUACGCUCC	-0.982 ± 0.34	-1.01 ± 0.45
GCGCAGCAAUAUUACGGCAU	-0.756 ± 0.075	0.684 ± 0.11

Sequence	self-splicing fitness (ln) (30 °C)	self-splicing fitness (ln) (37 °C)
GCGCAGCAAUAUUACGGUAC	-1.22 ± 0.082	0.195 ± 0.095
GCGCAGCAAUAUUACGGUCC	-1.22 ± 0.12	0.23 ± 0.17
GCGCAGCAAUAUUACGGUUA	-1.11 ± 0.084	-0.631 ± 0.08
GCGCAGCAAUAUUACGUCAC	-4.04 ± 0.17	-1.65 ± 0.11
GCGCAGCAAUAUUACGUGGG	-2.53 ± 0.1	-1.6 ± 0.11
GCGCAGCAAUAUUACGUUCU	-0.657 ± 0.093	0.0134 ± 0.11
GCGGAGCAAUAUUACGAAUA	–	-3.02 ± 0.4
GCGGAGCAAUAUUACGACAG	-3.33 ± 0.5	-1.09 ± 0.45
GCGGAGCAAUAUUACGACGC	–	-2.45 ± 0.21
GCGGAGCAAUAUUACGAGCA	–	-0.82 ± 0.4
GCGGAGCAAUAUUACGAUUG	-3.31 ± 0.19	-2.23 ± 0.24
GCGGAGCAAUAUUACGCAAC	-2.35 ± 0.48	–
GCGGAGCAAUAUUACGCAUU	-2.8 ± 0.39	–
GCGGAGCAAUAUUACGCGAG	–	-2.39 ± 0.36
GCGGAGCAAUAUUACGCGUG	-2.56 ± 0.29	-1.85 ± 0.29
GCGGAGCAAUAUUACGCUUG	-3.14 ± 0.24	-1.06 ± 0.2
GCGGAGCAAUAUUACGGAAG	–	-2.11 ± 0.36
GCGGAGCAAUAUUACGGCUA	–	-1.81 ± 0.39
GCGGAGCAAUAUUACGGUCC	-2.54 ± 0.39	–
GCGGAGCAAUAUUACGGUGG	-3.54 ± 0.35	-2.27 ± 0.39
GCGGAGCAAUAUUACGUAAC	-1.54 ± 0.34	–
GCGGAGCAAUAUUACGUAUC	-1.83 ± 0.33	–
GCGGAGCAAUAUUACGUAUG	-3.28 ± 0.31	-2.58 ± 0.41
GCGGAGCAAUAUUACGUCAA	-2.42 ± 0.37	–
GCGGAGCAAUAUUACGUCAG	-3.19 ± 0.31	-2.38 ± 0.35

Sequence	self-splicing fitness (ln) (30 °C)	self-splicing fitness (ln) (37 °C)
GCGGAGCAAUAUUACGUCCU	-1.31 ± 0.25	-0.651 ± 0.41
GCGGAGCAAUAUUACGUCUU	-2.3 ± 0.22	-0.899 ± 0.22
GCGGAGCAAUAUUACGUUCG	–	-0.666 ± 0.37
GCGGAGCAAUAUUACGUUGG	–	-3.01 ± 0.4
GCGUAGCAAUAUUACGACAC	-0.714 ± 0.092	-0.0138 ± 0.097
GCGUAGCAAUAUUACGACGA	-0.712 ± 0.15	-0.0139 ± 0.19
GCGUAGCAAUAUUACGACGG	-3.73 ± 0.48	-2.79 ± 0.43
GCGUAGCAAUAUUACGAGCA	-1.28 ± 0.082	-0.574 ± 0.094
GCGUAGCAAUAUUACGAGCG	-0.887 ± 0.15	-1.62 ± 0.17
GCGUAGCAAUAUUACGAGGC	–	-1.53 ± 0.39
GCGUAGCAAUAUUACGAGUC	-2.81 ± 0.22	-2.17 ± 0.23
GCGUAGCAAUAUUACGAUCG	-1.34 ± 0.12	-0.204 ± 0.13
GCGUAGCAAUAUUACGAUGC	-3.71 ± 0.32	-1.39 ± 0.27
GCGUAGCAAUAUUACGCCGU	-2.86 ± 0.26	-3.17 ± 0.26
GCGUAGCAAUAUUACGCGGG	-3.78 ± 0.24	-2.75 ± 0.3
GCGUAGCAAUAUUACGCGUG	-4.06 ± 0.28	-2.71 ± 0.15
GCGUAGCAAUAUUACGGACG	-3.14 ± 0.21	-2.1 ± 0.22
GCGUAGCAAUAUUACGGCAG	-3.83 ± 0.28	-2.13 ± 0.39
GCGUAGCAAUAUUACGGCGG	-2.79 ± 0.19	-1.36 ± 0.23
GCGUAGCAAUAUUACGGGGA	-2.23 ± 0.32	-2.89 ± 0.35
GCGUAGCAAUAUUACGGUGA	-1.73 ± 0.12	-0.187 ± 0.12
GCGUAGCAAUAUUACGGUUU	-1.03 ± 0.1	-0.436 ± 0.13
GCGUAGCAAUAUUACGUAUA	-2.15 ± 0.26	-1.52 ± 0.21
GCGUAGCAAUAUUACGUUAU	-3.72 ± 0.35	-1.89 ± 0.18
GCGUAGCAAUAUUACGUUGG	-2.62 ± 0.24	-2.96 ± 0.32

Sequence	self-splicing fitness (ln) (30 °C)	self-splicing fitness (ln) (37 °C)
GCUAAGCAAUAUUACGACGG	-1.8 ± 0.11	-1.49 ± 0.14
GCUAAGCAAUAUUACGACUC	0.21 ± 0.098	0.379 ± 0.14
GCUAAGCAAUAUUACGAGCA	-1.72 ± 0.14	-1.03 ± 0.13
GCUAAGCAAUAUUACGAUGG	-0.808 ± 0.072	-0.4 ± 0.098
GCUAAGCAAUAUUACGCAAG	–	-1.46 ± 0.28
GCUAAGCAAUAUUACGCAGC	-3.14 ± 0.4	-2.62 ± 0.28
GCUAAGCAAUAUUACGCCGC	-2.72 ± 0.48	–
GCUAAGCAAUAUUACGCCUC	-1.89 ± 0.16	-0.286 ± 0.22
GCUAAGCAAUAUUACGCGGU	-2.97 ± 0.27	-2.72 ± 0.25
GCUAAGCAAUAUUACGCGUC	-0.276 ± 0.14	-2.47 ± 0.19
GCUAAGCAAUAUUACGGCCC	-1.78 ± 0.18	-0.371 ± 0.14
GCUAAGCAAUAUUACGGCCG	-3.06 ± 0.25	-2.9 ± 0.47
GCUAAGCAAUAUUACGGGAA	-1.56 ± 0.12	-1.16 ± 0.12
GCUAAGCAAUAUUACGGGAU	-2.86 ± 0.1	-0.821 ± 0.081
GCUAAGCAAUAUUACGGGGA	-1.74 ± 0.17	-1.55 ± 0.21
GCUAAGCAAUAUUACGGUUC	-1.72 ± 0.097	-0.788 ± 0.11
GCUAAGCAAUAUUACGGUUG	-2.99 ± 0.092	-2.42 ± 0.098
GCUAAGCAAUAUUACGUAAA	-0.877 ± 0.068	-0.32 ± 0.091
GCUAAGCAAUAUUACGUACA	-1.38 ± 0.1	-0.974 ± 0.13
GCUAAGCAAUAUUACGUACU	-0.353 ± 0.051	-0.348 ± 0.068
GCUAAGCAAUAUUACGUAGU	-4.17 ± 0.31	-2.32 ± 0.19
GCUAAGCAAUAUUACGUAUU	-1.16 ± 0.079	-1.02 ± 0.11
GCUAAGCAAUAUUACGUUUC	-3 ± 0.16	-0.945 ± 0.12
GCUAAGCAAUAUUACGUUUU	-2 ± 0.093	-0.945 ± 0.1
GCUCAGCAAUAUUACGCAGA	-3.72 ± 0.2	-2.88 ± 0.2
